Data reported in the NTF2 design screens of Basanta et al. (2020).

Experiment: protease stability score; higher = more stable; yeast display proteolysis, trypsin and chymotrypsin;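 note: relative to predicted unfolded state with 0 unfolded-like and 1 meaning tenfold more protease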

In the case of “REDERISQIAIEIVEHLIRTGDERVESELADPHMKLRINGVEIHGRERVHDWIHRFVTEFGIDRVEARVHDSHVVNGRIYNDTESHINGKNVKMRWIAIKYNGRWIQTMITFE”, the protease stability score is reported as 1.3.

“REDKKDAEDIIRWLLRAWHTGDPRDVEKMMDPNTLSDINGQKIHGREDVSRFNEFILRHARVEVDVHSMEVYGNYLHVDERFTLRIGDKEIRTETHIIIIKVNGRWLVQTISYG” showed a protease stability score of 0.782.

For “REDVEDFKRFIELEVHAHETGDEDLLRKLLDPHVRVIIDGVTIVGWKALRDLLERFDHYTIHHMHIEDLRIQGDKIIVDLRLDLIFNYNGRHLRVDSHARIIMIKYNGRWYNHSIEFE”, the protease stability score was 2.12.

“REEDEIAENLFRLWIKSFLTGDFNTLRKLMDPHVRIHINGQEIHGREDFVRLLWEEFRRLGAKFHIEIKHLDVQGDKVFSEGTLRIEQGNKKDSKSVLIELIVVDGVITEIRMDVR” gave a protease stability score of 2.25.

“REEDEQLKRFTDEFIQVQRTGNEDLLREYADPNVKIVVGDKELHGREEMLYVFREIRVHNSELKRMHIIDGRAEVHVTAHVRQGDKVIEVKLHIIIYKIDGRWVIESMQWE” gave a protease stability score of 1.01.

With “REEDERDHRISELLFDLWVTGDWEIFHHLADPNVKANINGQETHGREKIMRIMMRMIHEFGFKHIQLEDSTVINGRVHQQIKVRVGDKSEEFNIHHHVVDGKIKHIHIEVR” the protease stability score was 1.36.

With “REEDHRSRHLSELWIHLWETGDEETMKKLADPNMRINVNGQEFHGREQATRHIHEFLEKFKNVRLHVENIRIQGEKILIISRAEVDGQELEIHIELIIVDGRIEEVNLHVYRR” the protease stability score was 1.46.

Sequence “REEDKEFEDAVKTILHSFLTGDFDLLIKLLDPNVRIRFENVDLVGWSEYLRRLEEFGVKVHRTKRSDIRYINGVAVVIIDGEMEYGDKKTKVELNFVMQKYDGRWRTQSIHEKEH” has a protease stability score of 1.12.

“REEDKRAREDVEEWLRWFLTGDEEHLIKYADPNVRVDYGDKDIHGRNEATRIWREFLKHIRIHHVEVSHIKYVGEKVIVDVRLDGEINGRRVITHVEMEIIVVNGVLKSVHINSR” gave a protease stability score of 1.21.

“REEEDNAEKFWEEFSKSLLTGDEDHMEELADPNARMRINGREKVGREEVRKELSHLFTHIRLKSIHLKDFKFFDGRLDIDGSLDGHINGKRREIEVHVHLWKVNGRWTLETLKIN” gave a protease stability score of 1.17.

In the case of “REEEEEAKRFLDIITRSILTGDEDSLSELFDPNTQLHYGDKRFVGRERINEVVKQWRIEDVNLHDVEVQGEWAILDTRVDGNFNGKKRNLETRIITEKVNGRWILKRVEIE”, the protease stability score is reported as 1.35.

“REEEEEIEEALRQWLTLHETGDFKYLEKLFDPNVKQDVGDKELHGRELFSKFEHELAERIKGVRFRYHYEEIHIFDGRVVLRLDGIWEIGDKSMRVTLIVIMNKFDGRWKLESLHIEYR” gave a protease stability score of 1.24.

“REEEEEIRFAEEFWMELEKTGDEHKILRMADPNVRVRIGDKHHHGREHLRRVIEWRLEYAGIDKIEVRLRRVTIINGRVHIDGELIVGDKEHRVEIILVKINGRWILHEFEIR” showed a protease stability score of 1.5.

In the case of “REEEEEMEELVRRIIHLLKTGDEREFNRLLDPDARVDDGDWHDHGREAWNKWSEKLRRDAGHENIEFHVRHFEVINGRIIMETKVHIGDKTLDTRLIFVVINGRLTSVRLEIH”, the protease stability score is reported as 0.037.

With “REEEEESQKATEHQLHSLRTGDWRSIERLLDPNTRMEINGVDSVGREYVLELFRRWLEEAGINHIELKSYEVFNGKLEIHSEVHYDGRTIKVINIVIKVNGRWLLHHVHIEDL” the protease stability score was 0.561.

Sequence “REEEEEVKRNAHITVHILLTGDFHHHSRLFDPHVRSEWNGVELHGMEEDLKWWIELVKHLRFKHFEIHDIRVYDGVADNDINEVIKVNGKDFTFKSSIILIIINGQIRELKFVIN” has a protease stability score of 0.073.

“REEEEHAEKVVKLMLHWLHTGDEEKFINNADPNVKLQIDGQRIHGWDDWERRMNEKLQRVDYIDNVVIRHIDNQGDKAIFHGELRGIQGDKHFTFHVELRIRVVNGVIHEMEIIIR” showed a protease stability score of 2.05.

In the case of “REEEEHAEYVIRVWERLLETGDEHEVARLLDPEVRLNIDGVDIHGREDIIRWLKHIRIEIEDSDHKRIEVQGEKIHLDGHRKEVIHVGDKKIRREHRIKLELVWIDGKITSLNVVLH”, the protease stability score is reported as 1.24.

In the case of “REEEEHAHRIFEILVRLWLTGDEDTYLNLADPHDLIEIDQGDKRDENHGRESAFHLWEWFLREMRIKRMILRDERVQGEKLEFDVEVRGNINGVDLRFRVHIIIVVINGRFKSSKVILN”, the protease stability score is reported as 0.759.

“REEEEHARRLVEMYFHALLTGDEDLLKSLLDPNVKLQIGDKVHVGREELIRSLRELWDKLGIDHITLEEYRIEIQGNKIRLKLYMHLHVNGRLLQVTTDILVDKVDGRWVIQEIRVHEA” showed a protease stability score of 1.91.
